# Experimental data as given in paper PMC2148073.
# Assays:
# [1] = biological target: native syntaxin 1A from PC12 cells (rat (endogenous in PC12)) (UniProt P32851)
# [2] = biological target: native syntaxin 1A from PC12 cells (rat (endogenous in PC12)) (UniProt P32851); remark: listed apart in the source
# UniProt P32851, sequence (P32851 whole entry): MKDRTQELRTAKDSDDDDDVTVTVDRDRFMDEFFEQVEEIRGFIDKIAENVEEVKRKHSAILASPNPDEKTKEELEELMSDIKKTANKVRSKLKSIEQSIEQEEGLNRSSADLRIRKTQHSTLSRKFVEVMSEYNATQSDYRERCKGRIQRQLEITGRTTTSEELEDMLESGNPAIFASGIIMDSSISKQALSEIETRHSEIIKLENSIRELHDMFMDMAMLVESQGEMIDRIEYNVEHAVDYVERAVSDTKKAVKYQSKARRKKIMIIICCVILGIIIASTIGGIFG
substance,measurement,setting,value
GST-fused Kv2.1-C1 protein (domain or fragment),inhibition of Ca2+-triggered [3H]-NE release from cracked PC12 cells by 10–20 µM GST-fusion peptide present during priming and triggering; pair blocked: endogenous Kv2.1 with syntaxin,[1],60%
same,half-maximal inhibition of Ca2+-triggered [3H]-NE release from cracked PC12 cells (dose response of GST-Kv2.1-C1); pair blocked: endogenous Kv2.1 with syntaxin,[2],2 µM
same,inhibition of Ca2+-triggered [3H]-NE release from cracked PC12 cells at increasing concentrations of GST-Kv2.1-C1 (from 10 nM; saturation at 5 µM); pair blocked: endogenous Kv2.1 with syntaxin,[2],57%
